{"source": "paper PMC8904598", "about": "“Structural snapshots of V/A-ATPase reveal the rotary catalytic mechanism of rotary ATPases” (Nature Communications, 2022)", "tested_on": "T1, Nc1ncnc2c1ncn2[C@@H]1O[C@H](COP(=O)(O)OP(=O)(O)OP(=O)(O)O)[C@@H](O)[C@H]1O", "T1 construct": "holo V/A-ATPase (A3B3D1F1 + E2G2d1a1c12), C-terminal His3 tag on each c subunit, purified from T. thermophilus membranes, nucleotide removed by EDTA/phosphate dialysis, MSP1E3D1/DMPC nanodiscs; models cover V1EG; with V-type ATP synthase subunit D; V-type ATP synthase subunit F; V-type ATP synthase subunit E; V-type ATP synthase subunit G; V-type ATP synthase subunit C; V-type ATP synthase subunit I; V-type ATP synthase subunit K", "assay": "purified protein", "assay_type": "biochemical, Thermus thermophilus", "settings": "nanodisc enzyme, ATP-Mg, 50 mM Tris-HCl pH 8.0, 100 mM KCl, 25 °C, ATP-regenerating system, all rows carry A/S232A, A/T235S"}
{"substance": "Tth V/A-ATPase (A/S232A, T235S; TSSA mutant), nanodisc-incorporated, nucleotide-free (Thermus thermophilus HB8; Q56403:S232A/Q56403:T235S)", "values": [{"measurement": "Km", "result": 394, "unit": "µM"}, {"measurement": "kcat", "result": 22, "unit": "s⁻¹"}]}
